According to PMC4564764, “Collagen Q and anti-MuSK autoantibody competitively suppress agrin/LRP4/MuSK signaling” (Scientific Reports, 2015):

Biological target: T1, purified recombinant ectodomain of human MuSK fused to myc (hMuSKect-myc), wild type (human, UniProt O15146 24-495)
T1 construct: muscle-specific receptor tyrosine kinase (MuSK), human, ectodomain (Ig1, Ig2, Ig3, C6 box, Ig4); It holds the C6 box, since a ΔC6 form was made from it; also called Wt; source: HEK293, transfected with phMUSKect-myc; in lysate for co-IP; not shown: myc, C-terminal, kept
T1 sequence (looked up): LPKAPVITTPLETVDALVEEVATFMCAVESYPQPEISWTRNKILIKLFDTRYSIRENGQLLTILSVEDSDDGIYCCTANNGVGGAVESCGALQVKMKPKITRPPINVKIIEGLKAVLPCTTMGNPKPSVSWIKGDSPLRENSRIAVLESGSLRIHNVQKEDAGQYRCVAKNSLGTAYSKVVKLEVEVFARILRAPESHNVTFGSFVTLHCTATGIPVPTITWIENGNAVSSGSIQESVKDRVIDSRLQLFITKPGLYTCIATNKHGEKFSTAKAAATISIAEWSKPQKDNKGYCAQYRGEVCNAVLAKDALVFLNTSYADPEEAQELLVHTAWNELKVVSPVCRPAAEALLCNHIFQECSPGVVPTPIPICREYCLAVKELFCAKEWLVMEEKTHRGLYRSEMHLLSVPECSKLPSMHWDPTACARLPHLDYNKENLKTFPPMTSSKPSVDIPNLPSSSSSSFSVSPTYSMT
Assay: ELISA; in vitro plate-binding assay: 0.15 ug hMuSKect-myc coated on a Maxi-Sorp plate, blocked with 1% BSA; 0.12 ug hLRP4N-FLAG overlaid with or without 0.24 ug rat neural agrin, room temperature 2 h; bound hLRP4N-FLAG read with anti-FLAG-HRP, normalised to that without agrin
Settings: both partners purified

B1: N-terminal ectodomain of human LRP4 fused to FLAG (hLRP4N-FLAG) (domain or fragment, UniProt O75096 21-1725, looked up)
chain: SSPECACGRSHFTCAVSALGECTCIPAQWQCDGDNDCGDHSDEDGCILPTCSPLDFHCDNGKCIRRSWVCDGDNDCEDDSDEQDCPPRECEEDEFPCQNGYCIRSLWHCDGDNDCGDNSDEQCDMRKCSDKEFRCSDGSCIAEHWYCDGDTDCKDGSDEENCPSAVPAPPCNLEEFQCAYGRCILDIYHCDGDDDCGDWSDESDCSSHQPCRSGEFMCDSGLCINAGWRCDGDADCDDQSDERNCTTSMCTAEQFRCHSGRCVRLSWRCDGEDDCADNSDEENCENTGSPQCALDQFLCWNGRCIGQRKLCNGVNDCGDNSDESPQQNCRPRTGEENCNVNNGGCAQKCQMVRGAVQCTCHTGYRLTEDGHTCQDVNECAEEGYCSQGCTNSEGAFQCWCETGYELRPDRRSCKALGPEPVLLFANRIDIRQVLPHRSEYTLLLNNLENAIALDFHHRRELVFWSDVTLDRILRANLNGSNVEEVVSTGLESPGGLAVDWVHDKLYWTDSGTSRIEVANLDGAHRKVLLWQNLEKPRAIALHPMEGTIYWTDWGNTPRIEASSMDGSGRRIIADTHLFWPNGLTIDYAGRRMYWVDAKHHVIERANLDGSHRKAVISQGLPHPFAITVFEDSLYWTDWHTKSINSANKFTGKNQEIIRNKLHFPMDIHTLHPQRQPAGKNRCGDNNGGCTHLCLPSGQNYTCACPTGFRKISSHACAQSLDKFLLFARRMDIRRISFDTEDLSDDVIPLADVRSAVALDWDSRDDHVYWTDVSTDTISRAKWDGTGQEVVVDTSLESPAGLAIDWVTNKLYWTDAGTDRIEVANTDGSMRTVLIWENLDRPRDIVVEPMGGYMYWTDWGASPKIERAGMDASGRQVIISSNLTWPNGLAIDYGSQRLYWADAGMKTIEFAGLDGSKRKVLIGSQLPHPFGLTLYGERIYWTDWQTKSIQSADRLTGLDRETLQENLENLMDIHVFHRRRPPVSTPCAMENGGCSHLCLRSPNPSGFSCTCPTGINLLSDGKTCSPGMNSFLIFARRIDIRMVSLDIPYFADVVVPINITMKNTIAIGVDPQEGKVYWSDSTLHRISRANLDGSQHEDIITTGLQTTDGLAVDAIGRKVYWTDTGTNRIEVGNLDGSMRKVLVWQNLDSPRAIVLYHEMGFMYWTDWGENAKLERSGMDGSDRAVLINNNLGWPNGLTVDKASSQLLWADAHTERIEAADLNGANRHTLVSPVQHPYGLTLLDSYIYWTDWQTRSIHRADKGTGSNVILVRSNLPGLMDMQAVDRAQPLGFNKCGSRNGGCSHLCLPRPSGFSCACPTGIQLKGDGKTCDPSPETYLLFSSRGSIRRISLDTSDHTDVHVPVPELNNVISLDYDSVDGKVYYTDVFLDVIRRADLNGSNMETVIGRGLKTTDGLAVDWVARNLYWTDTGRNTIEASRLDGSCRKVLINNSLDEPRAIAVFPRKGYLFWTDWGHIAKIERANLDGSERKVLINTDLGWPNGLTLDYDTRRIYWVDAHLDRIESADLNGKLRQVLVSHVSHPFALTQQDRWIYWTDWQTKSIQRVDKYSGRNKETVLANVEGLMDIIVVSPQRQTGTNACGVNNGGCTHLCFARASDFVCACPDEPDSRPCSLVPGLVPPAPRATGMSEKSPVLPNTPPTTLYSSTTRTRTSLEEVEGRCSERDARLGLCARSNDAVPAAPGEGLHIS
notes: low-density lipoprotein receptor-related protein 4 (LRP4), human, printed as 'the N-terminal ectodomain of human LRP4'; also called hLRP4-FLAG; source: HEK293, transfected with phLRP4N-FLAG; in lysate for co-IP; not shown: FLAG, C-terminal, kept
  fold increase of bound hLRP4N-FLAG with agrin over without agrin: 36 fold
